Results published in patent US20090136977A1 (published 2009).

B1: ATase2 (acetyltransferase 2) with a myc tag at the C-terminus (enzyme, not shown: small tags and cut ends)
chain: MAPCHIRKYQESDRQWVVGLLSRGMAEHAPATFRQLLKLPRTLILLLGGPLALLLVSGSWLLALVFSISLFPALWFLAKKPWTEYVDMTLCTDMSDITKSYLSERGSCFWVAESEEKVVGMVGALPVDDPTLREKRLQLFHLFVDSEHRRQGIAKALVRTVLQFARDQGYSEVILDTGTIQLSAMALYQSMGFKKTGQSFFCVWARLVALHTVHFIYHLPSSKVGSL
B2: ATase1 (acetyltransferase 1) with a myc tag at the C-terminus (enzyme, not shown: small tags and cut ends)
chain: MAPYHIRKYQESDRKSVVGLLSRGMAEHAPATFRRLLKLPRTLILLLGGALALLLVSGSWILALVFSLSLLPALWFLAKKPWTRYVDIALRTDMSDITKSYLSECGSCFWVGESEEKVVGTVGALPVDDPTLREKRLQLFHLSVDNEHRGQGIAKALVRTVLQFARDQGYSEVVLDTSNIQLSAMGLYQSLGFKKTGQSFFHVWARLVDLHTVHFIYHLPSAQAGRL

Target: affinity purified BACE1 (BACE1-myc, wild type) (UniProt P56817 22-501, limits assumed)
Test: cell-based or functional assay

Chain of affinity purified BACE1 (BACE1-myc, wild type) (P56817 22-501 limits assumed, form in doubt): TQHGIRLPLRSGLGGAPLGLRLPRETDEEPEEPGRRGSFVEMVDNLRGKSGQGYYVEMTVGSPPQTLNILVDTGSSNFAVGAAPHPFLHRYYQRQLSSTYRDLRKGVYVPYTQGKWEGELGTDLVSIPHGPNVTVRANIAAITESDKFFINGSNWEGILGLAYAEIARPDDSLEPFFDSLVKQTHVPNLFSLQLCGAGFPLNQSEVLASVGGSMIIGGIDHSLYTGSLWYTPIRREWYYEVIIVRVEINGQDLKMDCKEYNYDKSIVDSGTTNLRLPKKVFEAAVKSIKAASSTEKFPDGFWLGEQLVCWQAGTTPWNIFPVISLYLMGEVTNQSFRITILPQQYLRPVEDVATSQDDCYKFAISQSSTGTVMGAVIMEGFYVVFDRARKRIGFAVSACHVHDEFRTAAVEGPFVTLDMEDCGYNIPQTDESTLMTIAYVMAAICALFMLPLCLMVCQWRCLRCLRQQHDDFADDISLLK

Binder	acetylCoA:lysine acetyltransferase activity recovered from total cell extracts (acceptor: affinity purified BACE1)	acetyltransferase activity recovered from cell extracts (acceptor: affinity purified BACE1)
B1	~3 fold	–
B2	–	~2 fold
